How the values were obtained:
[1] = biological target: the molecule itself; test: SEC
[2] = biological target: the molecule itself; test: thermal reversion rate

Row | Protein | binding result [1] | further results
1 | Arabidopsis thaliana phytochrome B, full length (natural protein, UniProt P14713 1-1172, looked up, phytochromobilin (PΦB) covalently linked to Cys357) MVSGVGGSGGGRGGGRGGEEEPSSSHTPNNRRGGEQAQSSGTKSLRPRSNTESMSKAIQQYTVDARLHAVFEQSGESGKSFDYSQSLKTTTYGSSVPEQQITAYLSRIQRGGYIQPFGCMIAVDESSFRIIGYSENAREMLGIMPQSVPTLEKPEILAMGTDVRSLFTSSSSILLERAFVAREITLLNPVWIHSKNTGKPFYAILHRIDVGVVIDLEPARTEDPALSIAGAVQSQKLAVRAISQLQALPGGDIKLLCDTVVESVRDLTGYDRVMVYKFHEDEHGEVVAESKRDDLEPYIGLHYPATDIPQASRFLFKQNRVRMIVDCNATPVLVVQDDRLTQSMCLVGSTLRAPHGCHSQYMANMGSIASLAMAVIINGNEDDGSNVASGRSSMRLWGLVVCHHTSSRCIPFPLRYACEFLMQAFGLQLNMELQLALQMSEKRVLRTQTLLCDMLLRDSPAGIVTQSPSIMDLVKCDGAAFLYHGKYYPLGVAPSEVQIKDVVEWLLANHADSTGLSTDSLGDAGYPGAAALGDAVCGMAVAYITKRDFLFWFRSHTAKEIKWGGAKHHPEDKDDGQRMHPRSSFQAFLEVVKSRSQPWETAEMDAIHSLQLILRDSFKESEAAMNSKVVDGVVQPCRDMAGEQGIDELGAVAREMVRLIETATVPIFAVDAGGCINGWNAKIAELTGLSVEEAMGKSLVSDLIYKENEATVNKLLSRALRGDEEKNVEVKLKTFSPELQGKAVFVVVNACSSKDYLNNIVGVCFVGQDVTSQKIVMDKFINIQGDYKAIVHSPNPLIPPIFAADENTCCLEWNMAMEKLTGWSRSEVIGKMIVGEVFGSCCMLKGPDALTKFMIVLHNAIGGQDTDKFPFPFFDRNGKFVQALLTANKRVSLEGKVIGAFCFLQIPSPELQQALAVQRRQDTECFTKAKELAYICQVIKNPLSGMRFANSLLEATDLNEDQKQLLETSVSCEKQISRIVGDMDLESIEDGSFVLKREEFFLGSVINAIVSQAMFLLRDRGLQLIRDIPEEIKSIEVFGDQIRIQQLLAEFLLSIIRYAPSQEWVEIHLSQLSKQMADGFAAIRTEFRMACPGEGLPPELVRDMFHSSRWTSPEGLGLSVCRKILKLMNGEVQYIRESERSYFLIILELPVPRKRPLSTASGSGDMMLMMPY |  | stoichiometry N [1]: 2
2 | PhyB N908 fragment (domain or fragment, Arabidopsis thaliana, UniProt P14713 1-908, looked up, phytochromobilin (PΦB) bound) MVSGVGGSGGGRGGGRGGEEEPSSSHTPNNRRGGEQAQSSGTKSLRPRSNTESMSKAIQQYTVDARLHAVFEQSGESGKSFDYSQSLKTTTYGSSVPEQQITAYLSRIQRGGYIQPFGCMIAVDESSFRIIGYSENAREMLGIMPQSVPTLEKPEILAMGTDVRSLFTSSSSILLERAFVAREITLLNPVWIHSKNTGKPFYAILHRIDVGVVIDLEPARTEDPALSIAGAVQSQKLAVRAISQLQALPGGDIKLLCDTVVESVRDLTGYDRVMVYKFHEDEHGEVVAESKRDDLEPYIGLHYPATDIPQASRFLFKQNRVRMIVDCNATPVLVVQDDRLTQSMCLVGSTLRAPHGCHSQYMANMGSIASLAMAVIINGNEDDGSNVASGRSSMRLWGLVVCHHTSSRCIPFPLRYACEFLMQAFGLQLNMELQLALQMSEKRVLRTQTLLCDMLLRDSPAGIVTQSPSIMDLVKCDGAAFLYHGKYYPLGVAPSEVQIKDVVEWLLANHADSTGLSTDSLGDAGYPGAAALGDAVCGMAVAYITKRDFLFWFRSHTAKEIKWGGAKHHPEDKDDGQRMHPRSSFQAFLEVVKSRSQPWETAEMDAIHSLQLILRDSFKESEAAMNSKVVDGVVQPCRDMAGEQGIDELGAVAREMVRLIETATVPIFAVDAGGCINGWNAKIAELTGLSVEEAMGKSLVSDLIYKENEATVNKLLSRALRGDEEKNVEVKLKTFSPELQGKAVFVVVNACSSKDYLNNIVGVCFVGQDVTSQKIVMDKFINIQGDYKAIVHSPNPLIPPIFAADENTCCLEWNMAMEKLTGWSRSEVIGKMIVGEVFGSCCMLKGPDALTKFMIVLHNAIGGQDTDKFPFPFFDRNGKFVQALLTANKRVSLEGKVIGAFCFLQIPS |  | Kd [2]: ~26 nM
3 | PhyB N908(L427A) (domain or fragment, Arabidopsis thaliana, UniProt P14713 1-908, looked up, phytochromobilin (PΦB) bound) MVSGVGGSGGGRGGGRGGEEEPSSSHTPNNRRGGEQAQSSGTKSLRPRSNTESMSKAIQQYTVDARLHAVFEQSGESGKSFDYSQSLKTTTYGSSVPEQQITAYLSRIQRGGYIQPFGCMIAVDESSFRIIGYSENAREMLGIMPQSVPTLEKPEILAMGTDVRSLFTSSSSILLERAFVAREITLLNPVWIHSKNTGKPFYAILHRIDVGVVIDLEPARTEDPALSIAGAVQSQKLAVRAISQLQALPGGDIKLLCDTVVESVRDLTGYDRVMVYKFHEDEHGEVVAESKRDDLEPYIGLHYPATDIPQASRFLFKQNRVRMIVDCNATPVLVVQDDRLTQSMCLVGSTLRAPHGCHSQYMANMGSIASLAMAVIINGNEDDGSNVASGRSSMRLWGLVVCHHTSSRCIPFPLRYACEFLMQAFGAQLNMELQLALQMSEKRVLRTQTLLCDMLLRDSPAGIVTQSPSIMDLVKCDGAAFLYHGKYYPLGVAPSEVQIKDVVEWLLANHADSTGLSTDSLGDAGYPGAAALGDAVCGMAVAYITKRDFLFWFRSHTAKEIKWGGAKHHPEDKDDGQRMHPRSSFQAFLEVVKSRSQPWETAEMDAIHSLQLILRDSFKESEAAMNSKVVDGVVQPCRDMAGEQGIDELGAVAREMVRLIETATVPIFAVDAGGCINGWNAKIAELTGLSVEEAMGKSLVSDLIYKENEATVNKLLSRALRGDEEKNVEVKLKTFSPELQGKAVFVVVNACSSKDYLNNIVGVCFVGQDVTSQKIVMDKFINIQGDYKAIVHSPNPLIPPIFAADENTCCLEWNMAMEKLTGWSRSEVIGKMIVGEVFGSCCMLKGPDALTKFMIVLHNAIGGQDTDKFPFPFFDRNGKFVQALLTANKRVSLEGKVIGAFCFLQIPS | binds | 
4 | PhyB N982 fragment (domain or fragment, Arabidopsis thaliana, UniProt P14713 1-982, looked up, phytochromobilin (PΦB) bound) MVSGVGGSGGGRGGGRGGEEEPSSSHTPNNRRGGEQAQSSGTKSLRPRSNTESMSKAIQQYTVDARLHAVFEQSGESGKSFDYSQSLKTTTYGSSVPEQQITAYLSRIQRGGYIQPFGCMIAVDESSFRIIGYSENAREMLGIMPQSVPTLEKPEILAMGTDVRSLFTSSSSILLERAFVAREITLLNPVWIHSKNTGKPFYAILHRIDVGVVIDLEPARTEDPALSIAGAVQSQKLAVRAISQLQALPGGDIKLLCDTVVESVRDLTGYDRVMVYKFHEDEHGEVVAESKRDDLEPYIGLHYPATDIPQASRFLFKQNRVRMIVDCNATPVLVVQDDRLTQSMCLVGSTLRAPHGCHSQYMANMGSIASLAMAVIINGNEDDGSNVASGRSSMRLWGLVVCHHTSSRCIPFPLRYACEFLMQAFGLQLNMELQLALQMSEKRVLRTQTLLCDMLLRDSPAGIVTQSPSIMDLVKCDGAAFLYHGKYYPLGVAPSEVQIKDVVEWLLANHADSTGLSTDSLGDAGYPGAAALGDAVCGMAVAYITKRDFLFWFRSHTAKEIKWGGAKHHPEDKDDGQRMHPRSSFQAFLEVVKSRSQPWETAEMDAIHSLQLILRDSFKESEAAMNSKVVDGVVQPCRDMAGEQGIDELGAVAREMVRLIETATVPIFAVDAGGCINGWNAKIAELTGLSVEEAMGKSLVSDLIYKENEATVNKLLSRALRGDEEKNVEVKLKTFSPELQGKAVFVVVNACSSKDYLNNIVGVCFVGQDVTSQKIVMDKFINIQGDYKAIVHSPNPLIPPIFAADENTCCLEWNMAMEKLTGWSRSEVIGKMIVGEVFGSCCMLKGPDALTKFMIVLHNAIGGQDTDKFPFPFFDRNGKFVQALLTANKRVSLEGKVIGAFCFLQIPSPELQQALAVQRRQDTECFTKAKELAYICQVIKNPLSGMRFANSLLEATDLNEDQKQLLETSVSCEKQISRIVGD | binds | 

Reference: article PMC9930725 (Nature, 2022)
